B1: mAb10985 (antibody, V domains shown)
VH: EVQLVESGGGLVQPGRSLRLSCAASGFTFDDYAMHWVRQAPGKGLEWVSGISWNRGSIGYADSVKGRFTISRDNAKNSLYLQMSSLRAEDTALYYCAKDGERWDSVVVPSARNGMDVWGQGTTVTVSS
VL: QSVLTQPPSVSGAPGQRVTISCTGSSSNIGAGYDVHWYQQLPGTAPKLLIYGNSNRPSGVPDRFSGSKSGTSASLAITGLQAEDEADYYCQSYDSSLSGSYVFGTGTKVTVLG
B2: mAb10986 (antibody, V domains shown)
VH: EVQLVESGGGLVQPGGSLRLSCAASEFTVSSNYMSWVRQAPGKGLEWVSVIYSGGSTFYADSVKGRFTISRDNSKNTLYLQMNSLRAEDTAVYYCARALPYGDLHFDYWGQGTLVTVSS
VL: QSVLTQPPSVSGAPGQRVTISCTGSSSNIGTGYDVHWYQQLPGTAPKLLIYGNTNRPSGVPDRFSGSKSGTSASLAITGLQAEDEADYYCQSYDSSLSDSYVFGTGTKVTVLG
B3: mAb10913 (antibody, V domains shown)
VH: EVQLVESGGGLVQPGGSLRLSCAASGFTFRNYEMNWVRQAPGKGLEWVSYITSSGSTMYYADSVKGRFTISRDNAKNSLYLQMNSLRAEDTAVYYCARDGFYYYYAMDVWGQGTTVTVSS
VL: QSVLTQPPSVSAAPGQKVTISCSGSSSNIGNNYVSWYQQLPGTAPKLLIYDNNKRPSGIPDRFSGSKSGTSATLGITGLQTGDEADYYCGTWDSSLSVGRVFGTGTKVTVLG
B4: mAb10914 (antibody, V domains shown)
VH: EVQLVESGGGLVQPGGSLRLSCAASGLIVSRNYMIWVRQAPGKGLEWVSVIYSGGSTFYADSVKGRFTISRHNSKNTLYLQMNSLRAEDTAVYYCARDLGTGGMDVWGQGTTVTVSS
VL: DIQLTQSPSFLSASVGDRVTITCWASQGISSYLAWYQQKPGKAPKLLIYAASTLQSGVPSRFSGSGSGTEFTLTISSLQPEDFATYYCQQLNSYPLTFGGGTKVEIKR
B5: mAb10936 (antibody, V domains shown)
VH: QVQLVESGGGVVQPGRSLRLSCAASGFTFRNYGMHWVRQAPGKGLEWVSVIWYDGSNRYYADSVKGRFTISRDTSKNTLYLQMNSLRAEDTAVYYCARDPPITGTTGGDAFDIWGQGTMVTVSS
VL: not shown
B6: mAb10937 (antibody, V domains shown)
VH: QITLKESGPTLVKPTQTLTLTCTFSGFSLSTNVVGVGWIRQPPGKALEWLALIYWNDDKRYSPSLKSRLTITKDTSKNQVVLTMTNMDPVDTATYYCAHGPTGDYFDYWGQGTLVTVSS
VL: not shown
B7: mAb10920 (antibody, V domains shown)
VH: QVQLVESGGGVVQPGRSLRLSCAASGFTFSYYGMHWVRQAPGKGLEWVAVIWYDGSNKFYADSVKGRFTISRDNSKNTLYLQMNSLRAEDTAVYYCAAARPGYYYGMDVWGQGTTVTVSS
VL: DIQMTQSPSSLSASVGDRVTITCRASQGISNYLAWFQQKPGKAPNSLIYAASSLQRGVPSKFSGSGSGTDFTLTISSLQPEDFATYYCQQYNSYPRTFGQGTKVEIKR
B8: mAb10923 (antibody, V domains shown)
VH: QVQLVQSGAEVKKPGASVKVSCKASGYTFINYYIHWVRQAPGQGLEWMGWINPNSGGTNYAQKFQGRVTMTRDTSISTAYMELSRLRSDDTAVYYCAIITIFGVVTWFDPWGQGTLVTVSS
VL: not shown
B9: mAb10930 (antibody, V domains shown)
VH: EVQLVESGGGLVQPGRSLRLSCAASGFTFDDYAMYWVRQAPGKGLEWVSGISWNSGSIGYADSVKGRFTISRDNAKNSLYLQMNSLRAADTALYYCAKDKDWNSRGYYYYGMDVWGQGTTVTVSS
VL: not shown

What was measured:
Assay in all cases: Luminex, supernatant
[1] = molecular target: T1, MERS-CoV (NCoV/Novel coronavirus) Spike Protein S1 Protein (aa 1-725, His Tag) (Sino 40069-V08B1) (MERS-CoV, UniProt K9N5Q8 18-725)
T1 sequence: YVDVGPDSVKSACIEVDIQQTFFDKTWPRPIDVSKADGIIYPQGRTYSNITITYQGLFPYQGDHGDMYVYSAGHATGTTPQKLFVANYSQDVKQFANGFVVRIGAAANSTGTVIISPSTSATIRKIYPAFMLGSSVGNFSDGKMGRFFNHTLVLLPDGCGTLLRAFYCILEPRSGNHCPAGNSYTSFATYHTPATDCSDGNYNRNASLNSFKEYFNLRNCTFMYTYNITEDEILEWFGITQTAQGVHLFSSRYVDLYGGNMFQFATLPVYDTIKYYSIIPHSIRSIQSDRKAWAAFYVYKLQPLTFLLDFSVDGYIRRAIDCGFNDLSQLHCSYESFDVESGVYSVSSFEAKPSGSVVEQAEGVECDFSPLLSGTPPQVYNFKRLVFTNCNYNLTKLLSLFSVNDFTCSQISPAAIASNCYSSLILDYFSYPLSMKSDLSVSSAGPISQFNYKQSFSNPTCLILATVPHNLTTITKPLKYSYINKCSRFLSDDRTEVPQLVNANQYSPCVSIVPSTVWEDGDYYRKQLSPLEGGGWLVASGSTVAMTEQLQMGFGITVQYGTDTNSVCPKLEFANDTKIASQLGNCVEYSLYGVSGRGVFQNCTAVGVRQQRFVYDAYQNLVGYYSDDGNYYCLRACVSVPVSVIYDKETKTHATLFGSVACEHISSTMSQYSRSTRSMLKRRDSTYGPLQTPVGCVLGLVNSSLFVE

[2] = molecular target: Human SARS Coronavirus Spike S1 Subunit Protein (His Tag) (Sino 40150-V08B1) (Human SARS Coronavirus, UniProt P59594 14-667)
[3] = molecular target: T2, MERS-CoV Spike Protein (ECD, aa 1-1297, His Tag) (Sino 40069-[change]) (MERS-CoV, UniProt K9N5Q8 18-1297)
T2 sequence: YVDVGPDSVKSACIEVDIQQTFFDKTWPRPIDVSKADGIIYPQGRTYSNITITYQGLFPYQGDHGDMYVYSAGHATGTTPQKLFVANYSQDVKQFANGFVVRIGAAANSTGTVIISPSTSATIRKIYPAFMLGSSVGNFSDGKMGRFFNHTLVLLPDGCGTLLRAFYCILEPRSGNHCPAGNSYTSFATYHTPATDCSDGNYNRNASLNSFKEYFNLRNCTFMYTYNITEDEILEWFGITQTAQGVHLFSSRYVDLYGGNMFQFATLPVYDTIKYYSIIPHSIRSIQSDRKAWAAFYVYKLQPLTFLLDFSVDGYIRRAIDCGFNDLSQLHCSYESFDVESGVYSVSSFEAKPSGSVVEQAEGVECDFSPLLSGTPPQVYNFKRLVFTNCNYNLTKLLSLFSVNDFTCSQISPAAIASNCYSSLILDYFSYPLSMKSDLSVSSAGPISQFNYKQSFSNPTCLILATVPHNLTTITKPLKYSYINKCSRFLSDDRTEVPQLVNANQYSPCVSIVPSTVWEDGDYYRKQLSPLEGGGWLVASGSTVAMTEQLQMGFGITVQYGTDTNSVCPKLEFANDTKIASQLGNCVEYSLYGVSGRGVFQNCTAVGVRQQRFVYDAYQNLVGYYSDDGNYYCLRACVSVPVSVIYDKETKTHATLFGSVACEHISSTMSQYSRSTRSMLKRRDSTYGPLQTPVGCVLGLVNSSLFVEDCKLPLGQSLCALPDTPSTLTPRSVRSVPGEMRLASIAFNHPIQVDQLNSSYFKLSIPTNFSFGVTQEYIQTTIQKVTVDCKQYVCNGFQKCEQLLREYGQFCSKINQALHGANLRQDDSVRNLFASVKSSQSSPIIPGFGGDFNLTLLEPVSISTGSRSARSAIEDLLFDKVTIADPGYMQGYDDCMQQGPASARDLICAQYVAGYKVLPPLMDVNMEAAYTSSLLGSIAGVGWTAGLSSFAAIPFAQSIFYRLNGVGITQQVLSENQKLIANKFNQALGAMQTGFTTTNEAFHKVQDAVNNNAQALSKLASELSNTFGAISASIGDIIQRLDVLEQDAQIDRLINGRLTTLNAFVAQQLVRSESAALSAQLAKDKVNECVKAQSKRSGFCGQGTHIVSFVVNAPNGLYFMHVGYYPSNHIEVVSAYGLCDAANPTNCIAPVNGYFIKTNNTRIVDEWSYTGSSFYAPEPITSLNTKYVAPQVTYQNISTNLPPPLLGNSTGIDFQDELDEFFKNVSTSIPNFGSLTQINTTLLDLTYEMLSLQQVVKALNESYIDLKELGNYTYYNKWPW

[4] = molecular target: SARS-CoV-2 Spike Protein (RBD)(R319-F541).hFc (SARS-CoV-2)
[5] = molecular target: T3, MERS-CoV (NCoV/Novel coronavirus) Spike Protein fragment (RBD, aa 367-606, His Tag) (Sino 40071-V08B1) (MERS-CoV, UniProt K9N5Q8 367-606)
T3 sequence: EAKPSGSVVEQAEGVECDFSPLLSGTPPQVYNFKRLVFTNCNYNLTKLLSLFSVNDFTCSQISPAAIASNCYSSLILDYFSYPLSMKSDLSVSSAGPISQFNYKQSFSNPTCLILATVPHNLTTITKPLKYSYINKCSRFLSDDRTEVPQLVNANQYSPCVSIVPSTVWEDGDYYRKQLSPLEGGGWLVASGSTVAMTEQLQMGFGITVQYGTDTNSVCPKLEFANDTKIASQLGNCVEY

[6] = molecular target: T4, MERS-CoV Spike Protein S2 (aa 726-1296, His Tag) (Sino 40070-[change]) (MERS-CoV, UniProt K9N5Q8 726-1296)
T4 sequence: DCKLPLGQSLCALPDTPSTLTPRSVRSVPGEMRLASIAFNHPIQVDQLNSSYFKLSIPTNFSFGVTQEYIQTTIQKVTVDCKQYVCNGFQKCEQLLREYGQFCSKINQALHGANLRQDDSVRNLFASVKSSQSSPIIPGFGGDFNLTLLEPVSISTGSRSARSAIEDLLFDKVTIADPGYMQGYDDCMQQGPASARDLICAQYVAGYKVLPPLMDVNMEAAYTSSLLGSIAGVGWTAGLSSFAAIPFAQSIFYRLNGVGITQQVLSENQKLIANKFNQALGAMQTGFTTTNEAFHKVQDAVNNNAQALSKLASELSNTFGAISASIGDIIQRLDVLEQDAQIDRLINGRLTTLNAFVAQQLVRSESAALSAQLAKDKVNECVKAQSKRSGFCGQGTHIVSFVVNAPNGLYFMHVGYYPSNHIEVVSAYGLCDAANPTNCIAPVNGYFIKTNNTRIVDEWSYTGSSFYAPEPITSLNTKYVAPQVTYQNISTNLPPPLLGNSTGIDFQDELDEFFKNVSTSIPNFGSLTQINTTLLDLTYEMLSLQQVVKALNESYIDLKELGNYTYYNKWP

[7] = molecular target: SARS-CoV-2 Spike Protein (RBD)(R319-F541).mFc (SARS-CoV-2)

| Binder | MFI [1] | MFI [2] | MFI [3] | MFI [4] | MFI [5] | MFI [6] | MFI [7] |
| --- | --- | --- | --- | --- | --- | --- | --- |
| B1 | 22 MFI | 22700 MFI | 18 MFI | 31100 MFI | 31 MFI | 28 MFI | 29400 MFI |
| B2 | 20 MFI | 21 MFI | 15 MFI | – | 27 MFI | 19 MFI | 28400 MFI |
| B3 | 26 MFI | 21 MFI | 20 MFI | 31900 MFI | 34 MFI | 26 MFI | 33000 MFI |
| B4 | 23 MFI | 22 MFI | 19 MFI | 30500 MFI | 31 MFI | 28 MFI | 30700 MFI |
| B5 | 20 MFI | 20 MFI | 19 MFI | 33900 MFI | 29 MFI | 21 MFI | 33700 MFI |
| B6 | 22 MFI | 21 MFI | 19 MFI | 34600 MFI | 27 MFI | 26 MFI | 34200 MFI |
| B7 | 27 MFI | 26 MFI | 24 MFI | 36800 MFI | 39 MFI | 30 MFI | 36400 MFI |
| B8 | 25 MFI | 29 MFI | 23 MFI | 37800 MFI | 37 MFI | 36 MFI | 37400 MFI |
| B9 | 22 MFI | 19 MFI | 16 MFI | 28900 MFI | 27 MFI | 20 MFI | 28600 MFI |
